Measurements from patent publication US20250376507A1, “NOVEL TUMOR ANTIGEN-TARGETING ANTICANCER AGENT” (INDUSTRY FOUNDATION OF CHONNAM NATIONAL UNIVERSITY, priority 2022, published 2025).
Several values for one entry are separate records, joined by “and”; a condition that tells them apart may be missing. Equal entries are not always repeated.

T1: ecto-CRT on CT-26 cells (Mus musculus, UniProt P14211)
T1 sequence (P14211 18-416): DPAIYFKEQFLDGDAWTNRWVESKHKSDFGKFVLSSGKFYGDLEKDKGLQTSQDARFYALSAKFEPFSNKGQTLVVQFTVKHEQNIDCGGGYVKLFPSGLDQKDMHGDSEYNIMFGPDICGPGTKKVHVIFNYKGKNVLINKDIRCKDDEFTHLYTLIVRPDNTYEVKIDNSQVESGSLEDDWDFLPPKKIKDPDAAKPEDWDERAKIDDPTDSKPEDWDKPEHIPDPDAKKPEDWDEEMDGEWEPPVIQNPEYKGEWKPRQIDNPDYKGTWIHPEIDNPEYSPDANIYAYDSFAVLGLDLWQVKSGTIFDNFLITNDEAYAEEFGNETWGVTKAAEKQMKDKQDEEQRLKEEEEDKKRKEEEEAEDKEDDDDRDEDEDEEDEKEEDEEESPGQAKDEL

T2: ecto-CRT on MC-38 cells (Mus musculus, UniProt P14211)
T2 sequence (P14211 18-416): T1 sequence (P14211 18-416)

B1: CRT4LP: PASylated L-ASNase fused with CRT-targeting CRT4 monobody at N-terminus and PAS200 tag plus His6 tag at C-terminus (protein)
chain: MASVSDVPRDLEVVAATPTSLLISWGQPMYGQPMYYYRITYGETGGNSPVQEFTVPGSKSTATISGLKPGVDYTITVYAVTKLGFFKRPISINYRTSGGGGSGGGGSEFLPNITILATGGTIAGGGDSATKSNYTAGKVGVENLVNAVPQLKDIANVKGEQVVNIGSQDMNDDVWLTLAKKINTDCDKTDGFVITHGTDTMEETAYFLDLTVKCDKPVVMVGAMRPSTSMSADGPFNLYNAVVTAADKASANRGVLVVMNDTVLDGRDVTKTNTTDVATFKSVNYGPLGYIHNGKIDYQRTPARKHTSDTPFDVSKLNELPKVGIVYNYANASDLPAKALVDAGYDGIVSAGVGNGNLYKTVFDTLATAAKNGTAVVRSSRVPTGATTQDVEVDDAKYGFVASGTLNPQKARVLLQLALTQTKDPQQIQQIFNQYGSSGGGGSGGGGSASPAAPAPASPAAPAPSAPAASPAAPAPASPAAPAPSAPAASPAAPAPASPAAPAPSAPAASPAAPAPASPAAPAPSAPAASPAAPAPASPAAPAPSAPAASPAAPAPASPAAPAPSAPAASPAAPAPASPAAPAPSAPAASPAAPAPASPAAPAPSAPAASPAAPAPASPAAPAPSAPAASPAAPAPASPAAPAPSAPAAGSHHHHHH
B2: CRT3LP: PASylated L-ASNase fused with CRT-targeting CRT3 monobody at N-terminus and PAS200 tag plus His6 tag at C-terminus (protein)
chain: MASVSDVPRDLEVVAATPTSLLISWKLGFFKRYYRITYGETGGNSPVQEFTVPGSKSTATISGLKPGVDYTITVYAVTGQPMYGQPMYPISINYRTSGGGGSGGGGSEFLPNITILATGGTIAGGGDSATKSNYTAGKVGVENLVNAVPQLKDIANVKGEQVVNIGSQDMNDDVWLTLAKKINTDCDKTDGFVITHGTDTMEETAYFLDLTVKCDKPVVMVGAMRPSTSMSADGPFNLYNAVVTAADKASANRGVLVVMNDTVLDGRDVTKTNTTDVATFKSVNYGPLGYIHNGKIDYQRTPARKHTSDTPFDVSKLNELPKVGIVYNYANASDLPAKALVDAGYDGIVSAGVGNGNLYKTVFDTLATAAKNGTAVVRSSRVPTGATTQDVEVDDAKYGFVASGTLNPQKARVLLQLALTQTKDPQQIQQIFNQYGSSGGGGSGGGGSASPAAPAPASPAAPAPSAPAASPAAPAPASPAAPAPSAPAASPAAPAPASPAAPAPSAPAASPAAPAPASPAAPAPSAPAASPAAPAPASPAAPAPSAPAASPAAPAPASPAAPAPSAPAASPAAPAPASPAAPAPSAPAASPAAPAPASPAAPAPSAPAASPAAPAPASPAAPAPSAPAASPAAPAPASPAAPAPSAPAAGSHHHHHH

How the values were obtained:
ecto-CRT on CT-26 cells = molecular target: T1, ecto-CRT on CT-26 cells; test: Confocal immunofluorescence staining of CT-26 cells; type: cell-based; parameters: endogenous in cells; host or cells: CT-26 and MC-38 mouse colon cancer cells (in culture, or CT-26 tumors in mice)
Protocol: (§1) PASylated CRT-targeted L-ASNases bound to ecto-CRT on cells were visualized by confocal immunofluorescence microscopy with reference to the prior art (Y. Zhang, et al., Cancers, 13(11), 2801, 2021). After overnight incubation in a cover-glass, CT-26 and MC-38 cells (104) were treated with anticancer agents for 4 h at 37° C. The cells were then fixed with 1% PFA for 15 min, stained with 100 nM PASylated recombinant proteins for 1 h on ice, and treated with anti-His tagged monobodies (diluted to 1:1000) and Alexa Fluor 488-conjugated secondary antibody for 1 h (5 μg/mL). Cell membranes were stained with Alexa Fluor 555-conjugated wheat germ agglutinin (WGA) (diluted to 1:5000). Between each step, samples were washed with cold T-PBS. Finally, the cells were incubated with 4′,6-diamidino-2-phenylindole (DAPI) (Thermo Fisher Scientific, USA) to stain the nuclei. Immunofluorescence signals were imaged using an LSM510 confocal microscope (ZEISS, Jena, Germany) and data were analyzed with ZEN-LSM imaging software (ZEISS, Jena, Germany).

CT-26 tumor = test: In vivo anti-cancer efficacy in CT-26 tumor-bearing mice; conditions: for tumor suppression in mice treated with GEM: combination with GEM (non-ICD-inducing); for tumor growth in mice treated with ICD-inducing drugs: summary statement, doxorubicin and mitozantrone
Protocol: CT-26 and MC-38 tumor cells (106 in 100 μL PBS) were implanted subcutaneously into the right flanks of 6-week-old BALB/c and C57BL/6 female mice (Orient company, Korea), respectively. When the tumors reached about 100 mm^3, the tumor-bearing mice were injected intraperitoneally with anticancer agents (15 mg/kg GEM, 10 mg/kg DOX or 2 mg/kg MTX) three times every 2 days. Simultaneously, the mice were injected intravenously with the PASylated recombinant proteins of the present invention five times every 2 days. The length (L), width (W), and height (H) of each tumor were recorded every 3 days using a digital caliper, and the tumor volume (mm3) was calculated using the following formula (L×H×W)/2. Mice were euthanized when tumors were ˜1,500 mm^3 and all animal experiments were performed in accordance with the general principles and procedures outlined in the National Institutes of Health Guidelines, and all protocols were approved by the Chonnam National University Animal Care and Use Committee (permit number: HCRL 16-001).

ecto-CRT on MC-38 cells = molecular target: T2, ecto-CRT on MC-38 cells; test: Confocal immunofluorescence staining of MC-38 cells; type: cell-based; parameters: endogenous in cells; host or cells: CT-26 and MC-38 mouse colon cancer cells (in culture, or CT-26 tumors in mice)
Protocol: as §1

CT-26 cells = test: Cell viability (CCK-8) of CT-26 cells; type: cell-based, mouse; conditions: 1 IU/mL; for cell viability: 24 h, no anticancer pretreatment; for reduction of viability of cells pretreated with DOX and MTX, higher extent: 24 h after DOX or MTX pretreatment; for reduction in cell viability in cells pretreated with GEM: 24 h after GEM pretreatment
Protocol: CT-26 and MC-38 cells (10^4 cells per well) were seeded into three wells of a 96-well plate and incubated at 37° C. The next day, the culture medium was replaced with 100 μL of fresh medium containing the above concentrations of anticancer agents. After incubation at 37° C. for 4 h, the culture medium was removed and the cells were washed three times with PBS. […] Finally, CCK-8 reagent (10 μL/well) was added for 3 h at 37° C., and the amount of color in each sample was measured at OD450.

[1] = In vivo pharmacokinetic analysis; parameters: species or system BALB/c mice; conditions: 10 IU intravenous, mouse serum
Protocol: Six-week-old female BALB/c mice (Orient Company, Korea) were randomly assigned to different treatment groups (n=3) and intravenously injected with 10 IU of PASylated recombinant protein. Then, blood samples were taken from the eyes at the specified time (0-52 h) and left at 4° C. for 40 min. After centrifugation at 12,000 rpm for 20 min, the serum fraction was obtained and stored at −80° C. before further analysis. PASylated recombinant protein in serum was assessed using the ELISA method described above. The amount of serum recombinant protein was converted to enzyme activity.

[2] = CT-26 cells treated with DOX or MTX
[3] = MC-38 cells treated with DOX or MTX

| Molecule | immunofluorescence staining, binding to cells (ecto-CRT on CT-26 cells; [2]) | immunofluorescence staining, binding to cells (ecto-CRT on CT-26 cells; CT-26 cells treated with GEM) | tumor suppression in mice treated with GEM (CT-26 tumor) | tumor growth in mice treated with ICD-inducing drugs (CT-26 tumor) | immunofluorescence staining, binding to cells (ecto-CRT on MC-38 cells; [3]) | immunofluorescence staining, binding to cells (ecto-CRT on MC-38 cells; MC-38 cells treated with GEM) | cell viability (CT-26 cells) | reduction of viability of cells pretreated with DOX and MTX, higher extent (CT-26 cells) | reduction in cell viability in cells pretreated with GEM (CT-26 cells) | half-life [1] | sudden death of mice (CT-26 tumor; 20 IU CRT3LP per injection, DOX-treated mice, by day 12) | optimal therapeutic dose (CT-26 tumor; DOX-treated mice) |
| --- | --- | --- | --- | --- | --- | --- | --- | --- | --- | --- | --- | --- |
| B1 | only bound | not | not and did not enhance tumor suppression | significantly inhibiting tumor growth | only bound | not | barely affected | 2 fold | not observed | – | – | – |
| B2 | only bound | not | not and did not enhance tumor suppression | significantly inhibiting tumor growth | only bound | not | barely affected | 2 fold | not observed | 9.34 ± 0.91 h | caused sudden death and 2 out of 3 and Two of the mice injected with 20 IU died | 8 IU/injection/mouse |
